For this test, the target named is T1, eNOS (Bos taurus, UniProt P29473, DEL841-841).
T1 construct: made in house; host or cells: E. coli BL21 (pCWori+)
The experiment in a line: NO synthase activity per heme of eNOS mutants. The test is classed as biochemical, bovine. As to conditions: fully activated state (Ca+2/CaM). How it is done:
Expression and purification of wild type and mutant bovine eNOS and rat nNOS. Expression and purification of bovine eNOS and rat nNOS were performed using procedures similar to those previously described (Martasek, P.,et al., (1996) Biochem Biophys Res Commun. 219(2); 359-65). Transformed cells were broken with a French press, and after centrifugation to remove cell debris the supernatant was loaded on a 2′5′ADP affinity column, washed, and eluted with 2′AMP as described (id). […] Enzyme sample concentrations were determined on the basis of heme concentration, except in heme free preparations, where the flavin concentration was measured. UV-visible absorbance spectra were recorded on an Aminco DW-2000 spectrophotometer.
Nitric Oxide production was assayed using the Griess assay as adapted for microtiter plates (Gross, S. S. (1996) Methods Enzymol. 268:159-68); calcium dependence was measured using EDTA as a Ca+2 buffer system. […] NADPH-dependent cytochrome c reduction was measured spectrophotometrically as described by McMillan et al (McMillan, K., et al., (1992) Proc Nat. Acad. Sci. U.S.A. 89, 11141-11145), adapted to 96-well plate microtiter plates. […] Cytochrome c reduction was monitored at 550 nm (ε=2.1×104/M). […] Assays were performed on a SpectraMAX plate reader (Molecular Devices).

B1: G841 deletion mutant: bovine eNOS small insertion mutant with G841 deleted (protein, UniProt P29473 2-1205, looked up, variant G841*)
Nitric oxide synthase 3: GNLKSVGQEPGPPCGLGLGLGLGLCGKQGPASPAPEPSRAPAPATPHAPDHSPAPNSPTLTRPPEGPKFPRVKNWELGSITYDTLCAQSQQDGPCTPRCCLGSLVLPRKLQTRPSPGPPPAEQLLSQARDFINQYYSSIKRSGSQAHEERLQEVEAEVASTGTYHLRESELVFGAKQAWRNAPRCVGRIQWGKLQVFDARDCSSAQEMFTYICNHIKYATNRGNLRSAITVFPQRAPGRGDFRIWNSQLVRYAGYRQQDGSVRGDPANVEITELCIQHGWTPGNGRFDVLPLLLQAPDEAPELFVLPPELVLEVPLEHPTLEWFAALGLRWYALPAVSNMLLEIGGLEFSAAPFSGWYMSTEIGTRNLCDPHRYNILEDVAVCMDLDTRTTSSLWKDKAAVEINLAVLHSFQLAKVTIVDHHAATVSFMKHLDNEQKARGGCPADWAWIVPPISGSLTPVFHQEMVNYILSPAFRYQPDPWKGSATKGAGITRKKTFKEVANAVKISASLMGTLMAKRVKATILYASETGRAQSYAQQLGRLFRKAFDPRVLCMDEYDVVSLEHEALVLVVTSTFGNGDPPENGESFAAALMEMSGPYNSSPRPEQHKSYKIRFNSVSCSDPLVSSWRRKRKESSNTDSAGALGTLRFCVFGLGSRAYPHFCAFARAVDTRLEELGGERLLQLGQGDELCGQEEAFRGWAKAAFQASCETFCVGEEAKAAAQDIFSPKRSWKRQRYRLSTQAEGLQLLPGLIHVHRRKMFQATVLSVENLQSSKSTRATILVRLDTAGQEGLQYQPGDHIGICPPNRPGLVEALLSRVEDPPPPTESVAVEQLEKGSPGPPPSWVRDPRLPPCTLRQALTFFLDITSPPSPRLLRLLSTLAEEPSEQQELETLSQDPRRYEEWKWFRCPTLLEVLEQFPSVALPAPLLLTQLPLLQPRYYSVSSAPNAHPGEVHLTVAVLAYRTQDGLGPLHYGVCSTWLSQLKTGDPVPCFIRGAPSFRLPPDPYVPCILVGPGTGIAPFRGFWQERLHDIESKGLQPAPMTLVFGCRCSQLDHLYRDEVQDAQERGVFGRVLTAFSREPDSPKTYVQDILRTELAAEVHRVLCLERGHMFVCGDVTMATSVLQTVQRILATEGDMELDEAGDVIGVLRDQQRYHEDIFGLTLRTQEVTSRIRTQSFSLQERHLRGAVPWAFDPPGPDTPGP
B1: the “activity per heme in the fully activated state” value is 85 % of wild type.

The values above are taken from patent publication US20050054615A1, “Calmodulin independent activation of nitric oxide synthase” (Rensselaer Polytechnic Institute, priority 2002, published 2005).
